From US20250206819A1 (MorphoSys, published 2025) come the findings set out here.

Substitutions are numbered along the chain they refer to. Names and notes keep the numbering of the source. Values joined by “and” are separate entries in the source; they are usually repeats but may differ in a detail not shown here. Equal values may be shown once.

Assay [1] addresses Mature human CD3e(22-118)_FLAG-chLys_Avi (human). Briefly: BLI (Octet), bispecific captured, antigen as analyte. On the procedure: (§1) Affinity determination by determining kinetic rate constants was performed on an Octet HTX (FortéBIO, Sartorius AG) instrument. […] The association phase was recorded for 180 s, followed by a dissociation phase of 300 s. After each cycle, the biosensors were regenerated two times with 10 mM Glycine HCl pH 1.7 to remove bound ligand/antibody complex, while maintaining the integrity of the capture surface. Between regeneration steps, biosensors were washed with assay buffer for 20 s. Sensorgrams were evaluated with Data Analysis Software v 10 (Octet/fortébio). All sensorgrams were fitted to a 1:1 binding model to determine kₒₙ and koff rate constants, which were used to calculate the KD value. For kinetic profiles deviating from the expected 1:1 binding, the sensorgrams were evaluated using a best approximation to the monovalent kinetics, and results marked with comment “heterogeneous binding”.

The target of assay [2] is T1, human CD3 expressed on cells (Jurkat cells, human T cells) (human, UniProt P07766 22-207).
T1 construct: Endogenous CD3 complex on cells; also called CD3 positive Jurkat cells; Jurkat (CD3+)
T1 sequence (P07766 22-207): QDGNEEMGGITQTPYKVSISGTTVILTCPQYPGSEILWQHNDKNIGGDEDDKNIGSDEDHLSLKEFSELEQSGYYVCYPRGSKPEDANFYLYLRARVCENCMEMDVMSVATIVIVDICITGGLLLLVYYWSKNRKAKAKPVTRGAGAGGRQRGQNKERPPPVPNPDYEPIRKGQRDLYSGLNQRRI
Nature of the assay: flow cytometry on Jurkat cells. On the procedure:
Target cells were mixed with the bispecific antibodies serially diluted (final concentration: 0.1 nM-200 nM) in D-PBS (Gibco) containing 3% fetal bovine serum (Sigma, #F7524) and incubated for 1 h on ice. Cells were washed 2 times in D-PBS (Gibco) containing 3% fetal bovine serum (Sigma, #F7524) and 0.02% […]. […] Antibody staining was measured using FACS Array (Beckton Dickinson) or IntelliCyt iQue flow cytometer and analyzed in FlowJo or ForeCyt (IntelliCyt) softwares, respectively. EC₅₀ values were calculated using 4-parameter non-linear regression analysis in Prism software (GraphPad Software Inc.).

The target in assay [3] is Mature human CD3e(22-118)_FLAG-chLys_Avi (human). Nature of the assay: BLI (Octet), bispecific captured, antigen as analyte; heterogenous binding. On the procedure:
as §1

In assay [4] the target is T1, human CD3 expressed on cells (Jurkat …). Briefly: cell-based or functional assay.
For assay [5] the target is unchanged. Nature of the assay: cell-based or functional assay. The source holds these as a separate data set.
For assay [6] the target is unchanged. Nature of the assay: flow cytometry on human T cells, 167 nM antibody.
The target of assay [7] is T2, Mature cynomolgus CD3e(22-49)_Fc2(K105-K330) (cynomolgus).
T2 construct: also called cyCD3e(22-49)-Fc2(K105-K330); recombinant cynomolgus CD3e (22-49)-Fc2(K105-K330)
Briefly: ELISA, antigen coated on plate. On the procedure: (§2) Bispecific Fab₂-Fc-scFv antibodies according Example 1.2 were tested for their ability to bind to recombinant human and cynomolgus CD3epsilon antigen in ELISA. 5 nM of recombinant human CD3e (22-49)-Fc2 (K105-K330) (SEQ ID NO: 41) or 1 nM of recombinant cynomolgus CD3e (22-49)-Fc2(K105-K330) (SEQ ID NO: 42) were coated on Maxisorp plates (Nunc, #460518). Coated plates were blocked with 5% skim milk in PBS. Antibodies were serially diluted in PBS containing 0.5% skim milk and 0.5% Tween-20. […] EC₅₀ values were calculated using 4-parameter non-linear regression analysis in Prism software (GraphPad Software Inc.)

Assay [8] deals with T3, Mature human CD3e(22-49)_Fc2(K105-K330) (human).
T3 construct: also called hCD3e(22-49)-Fc2(K105-K330); recombinant human CD3e (22-49)-Fc2 (K105-K330)
Nature of the assay: ELISA, antigen coated on plate. On the procedure: as §2

Assay [9] deals with T1, human CD3 expressed on cells (Jurkat …). Briefly: cell-based or functional assay. This is another data set of the same source.
The target of assay [10] is Mature human CD3e(22-118)_FLAG-chLys_Avi (human). Nature of the assay: BLI (Octet), bispecific captured, antigen as analyte. On the procedure: Sensorgrams were evaluated with Data Analysis Software v 10 (Octet/fortébio). All sensorgrams were fitted to a 1:1 binding model to determine kₒₙ and koff rate constants, which were used to calculate the KD value. For kinetic profiles deviating from the expected 1:1 binding, the sensorgrams were evaluated using a best approximation to the monovalent kinetics, and results marked with comment “heterogeneous binding”.
Mature human CD3e(22-118)_FLAG-chLys_Avi (human), sequence (chain, as listed by the source limits assumed): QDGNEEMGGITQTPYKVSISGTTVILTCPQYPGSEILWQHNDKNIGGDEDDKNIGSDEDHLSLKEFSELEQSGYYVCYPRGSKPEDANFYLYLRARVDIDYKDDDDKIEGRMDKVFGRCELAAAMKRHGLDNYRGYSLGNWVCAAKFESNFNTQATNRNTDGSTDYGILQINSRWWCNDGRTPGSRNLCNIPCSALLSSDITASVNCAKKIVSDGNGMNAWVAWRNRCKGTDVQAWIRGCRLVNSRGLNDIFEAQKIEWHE
The source holds these as a separate data set.

B1: BissIg_18_opt_VH#1 (bispecific antibody, V domains shown)
VH 1: not shown
VL 1: not shown
VH 2: EVQLVESGGGLVQPGGSLRLSCAASGFSFGSHYMSWVRQAPGKGLEWVANINQIGYSSYYVESVKGRFTISRDNAKNSLYLQMNSLRAEDTAVYYCARGYSAEFAHRSGLDVWGQGTLVTVSS
VL 2: QSVLTQPPSASGTPGQRVTISCSGSSSNIGSNYVYWYQQLPGTAPKLLIYRNNQRPSGVPDRFSGSKSGTSASLAISGLRSEDEADYYCAAWDHHRSGAVFGGGTKLTVLGQ
notes: 1+1 IgG1 made by Fab-arm exchange; AEASS Fc; F405L in the CD3 half, K409R in the HER2 half
In assay [1], B1 had an off-rate (koff) of 0.0044 s⁻¹ and a kon of 250000 M⁻¹ s⁻¹. Also, the EC50 in [2] came out at 9 nM. This molecule also came in with a dissociation constant (Kd) in assay [3] of 17 nM. Also, in assay [4], the “Reporter gene assay MCF-7 EC50” value was found to be 0.33 nM and the “Reporter gene assay SKOV3 EC50” value is 0.18 nM. Further, in [5], the “T cell mediated killing MCF-7 [T cells] IC50 [pM]” value was 210 pM and the “T cell mediated killing SKBR3 [PBMCs] IC50 [pM]” value worked out at 15 pM.

B2: BissIg_18_opt_VL (bispecific antibody, V domains shown)
VH 1: not shown
VL 1: not shown
VH 2: B1 VH 2 with S28T, G30S, H32Y, Y33W, N52K, I54D, Y56S, S57E, S58K, E62D
VL 2: B1 VL 2 with A91G, D93S, H94R, H95S, R96L, S97H
notes: as for B1
For the molecule B2, in assay [1], the koff turned out to be 0.0041 s⁻¹ and the kon was 150000 M⁻¹ s⁻¹. Moreover, the Kd in assay [3] amounted to 28 nM.

B3: Bisslg_08_#GP (bispecific antibody)
VH: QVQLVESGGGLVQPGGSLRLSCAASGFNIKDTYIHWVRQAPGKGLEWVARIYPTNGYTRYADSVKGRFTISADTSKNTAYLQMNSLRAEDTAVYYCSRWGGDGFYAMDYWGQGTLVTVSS
VL: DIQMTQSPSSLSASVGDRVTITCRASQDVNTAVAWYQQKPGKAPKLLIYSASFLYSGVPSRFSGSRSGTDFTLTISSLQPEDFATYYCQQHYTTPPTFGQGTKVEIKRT
scFv: QSVLTQPPSASGTPGQRVTISCSGSSSNIGSNYVYWYQQLPGTAPKLLIYRNNQRPSGVPDRFSGSKSGTSASLAISGLRSEDEADYYCAAWDHHRSGAVFGGGTKLTVLGQAQPAAPAPNAHEAPAPAQGSEVQLVESGGGLVQPGGSLRLSCAASGFTFSSYWMSWVRQAPGKGLEWVANIKQDGSEKYYVDSVKGRFTISRDNAKNSLYLQMNSLRAEDTAVYYCARGYSAEFAHRSGLDVWGQGTLVTVSS
notes: Format as Bisslg_08_#1: aglycosylated human IgG1, AEASS Fc, knob-into-hole; also called CD3-MABGP in the bispecific 2+1 Fab2-Fc-scFv format; grandparent antibody CD3-MABGP
Turning to B3, the “T cell binding @ antibody conc. of 167 nM [S/BG]” value in assay [6] turned out to be 1.4 S/BG. The concentration giving a half-maximal response (EC50) was 369 nM in [7] and 248 nM in assay [8]. In addition, in [9], the “RGA @ antibody conc. of 1 nM [S/BG] SKBR3 (Jurkat NFAT reporter gene assay)” value worked out at 1 S/BG. This molecule gave an equilibrium dissociation constant (Kd) in [10] of 240 nM.

B4: BissIg_18_opt_cc# (bispecific antibody, human IgG1, kappa, lambda)
heavy 1: not shown
light 1: not shown
heavy 2: EVQLVESGGGLVQPGGSLRLSCAASGFSFGSHYMSWVRQAPGKGLEWVANINQIGYSSYYVESVKGRFTISRDNAKNSLYLQMNSLRAEDTAVYYCARGYSAEFAHRSGLDVWGQGTLVTVSSASTKGPSVFPLAPSSKSTSGGTAALGCLVKDYFPEPVTVSWNSGALTSGVHTFPAVLQSSGLYSLSSVVTVPSSSLGTQTYICNVNHKPSNTKVDKRVEPKSCDKTHTCPPCPAPEAEGAPSVFLFPPKPKDTLMISRTPEVTCVVVDVSHEDPEVKFNWYVDGVEVHNAKTKPREEQYNSTYRVVSVLTVLHQDWLNGKEYKCKVSNKALPSSIEKTISKAKGQPREPQVYTLPPSREEMTKNQVSLTCLVKGFYPSDIAVEWESNGQPENNYKTTPPVLDSDGSFLLYSKLTVDKSRWQQGNVFSCSVMHEALHNHYTQKSLSLSPGK
light 2: not shown
In assay [1], B4 returned a koff of 0.0011 s⁻¹ and a kon of 1.2e+06 M⁻¹ s⁻¹. The EC50 in assay [2] turned out to be 7 nM. The molecule also displayed a Kd in assay [3] of 0.9 nM. Also, in [4], the “Reporter gene assay MCF-7 EC50” value is < 0.2 nM and the “Reporter gene assay SKOV3 EC50” value amounted to 0.07 nM. Further, in [5], the “T cell mediated killing MCF-7 [T cells] IC50 [pM]” value was < 10 pM and 13.2 pM; the “T cell mediated killing SKBR3 [PBMCs] IC50 [pM]” value worked out at 1.8 pM.
